According to patent US20070073040A1, “Anti-obesity polypeptides” (Yonsei University, priority 2001, published 2007):
Where “and” joins values, the source holds several entries; their conditions need not be identical. Equal values may be shown once.

Legend:
[1] = clinical test, cited from earlier work
[2] = Body weight of white rabbits after subcutaneous injection of protein-Adjuvant mixture; format: in vivo, rabbit; details: 10 days after third injection
Experimental: (§1) 4 white rabbits with 1.2 kg body weight were divided into a control group and an experimental group having two rabbits, respectively. The purified SynLeptin-1 or -2 protein (500-700 μg or saline was mixed with Adjuvant 2 ml (Sigma), and then injected into 4 different parts of the rabbit hypoderm. After 2 weeks, an equivalent amount of the protein-Adjuvant mixture was injected, and then third injection was performed after 2 weeks. Thereafter, body weight loss was measured after 10 days. The result was as follows. The body weight of the experimental group treated with SynLeptin-1 was 1.8 kg and 2.08 kg, respectively (average 1.94 kg), while the body weight of the control group was 2.5 kg and 2.45 kg, respectively (average 2.48 kg). […] Also we treated the ZDF rats with nonfunctional Leptin receptor gene with SynLeptin-1 or -2 polypeptides for 30 days (FIG. 2).

[3] = Body weight of ZDF rats with nonfunctional Leptin receptor treated with SynLeptin polypeptides; format: in vivo, rat; details: 12-week-old ZDF rats; injected two times every two weeks into hypoderm; after about 30 days; saline control 8.5% increase
Experimental: FIG. 2 illustrates weigh loss when SynLeptin-1 or 2 polypeptide was injected two times every two weeks into the hypoderm of 12-week-old ZFD rats with non-functional Leptin receptor.
as §1

adipose tissue = assay: Autopsy and pathological examination of experimental rabbits; format: in vivo, rabbit; details: polypeptide-Adjuvant mixture injected three times into hypoderm every two weeks, versus saline-Adjuvant
Experimental: In FIG. 3A, arrows indicate distribution of adipose tissue in various organs in the test rabbit that SynLeptin-2 polypeptide-Adjuvant mixture was injected three times into the hypoderm every two weeks. In FIG. 3B, arrows indicate distribution of adipose tissue in various organs injected with saline-Adjuvant mixture three times into the hypoderm every two weeks.
We analyzed the reasons for the decrease in body weight by autopsy and pathological examinations. […] When the rabbits were sacrificed and autopsy was carried out, no pathological abnormali in their organs was observed. However, remarkable reduction of fat mass not only in abdominal and subcutaneous adipose tissues but also tissues surrounding various organs was evident.

Leptin: 16 kDa ob polypeptide hormone synthesized in adipose tissue, regulating body weight
weight response upon Leptin treatment (other obese people) ([1]; other obese people): did not lost weight | body weight lost ([1]; some obese people): 7.1 kg

B1: SynLeptin-1: Tat polypeptide fragment, 71 (b9: 72) amino acids from N-terminus of Tat, expressed from pGEX4T-3-SynLeptin-1 (protein)
chain: MEPVNPSLEPWKHPGSQPKTACTNCYCAKCCFHCQVCFITKALGISYGRAKRRQRRRPPQGSQTHQVSLSK
modifications: 71 amino acid Tat mutant
body weight of individual rabbit of the experimental group ([2]; rabbits, starting body weight 1.2 kg, control 2.5 and 2.45 kg): 1.8 kg and 2.08 kg | average body weight of the experimental group ([2]; two rabbits, control average 2.48 kg): 1.94 kg | weight increase [3]: 3.5%

B2: SynLeptin-2: Tat polypeptide of 86 amino acids from N-terminus of Tat, expressed from pGEX4T-3-SynLeptin-2 (protein)
chain: MEPVDPRLEPWKHPGSQPKTACTNCYCKKCCFHCQVCFMTKALGISYGRKKRRQRRRAHQNSQTHQASLSKQPTSQSRGDPTGPKE
modifications: 86 amino acid Tat mutant
notes: Tat polypeptide of 86 amino acids from N-terminus of Tat, expressed from pGEX4T-3-SynLeptin-2
weight loss (decrease of body weight) [3]: 4.3% | fat / adipose tissue at autopsy (adipose tissue): markedly reduced fat in various tissues including adipose tissue
